The target of the assay is T1, Biotinylated human TNFR2 protein (human, UniProt P20333-1 23-257, biotin (commercial biotinylation kit)).
T1 chain: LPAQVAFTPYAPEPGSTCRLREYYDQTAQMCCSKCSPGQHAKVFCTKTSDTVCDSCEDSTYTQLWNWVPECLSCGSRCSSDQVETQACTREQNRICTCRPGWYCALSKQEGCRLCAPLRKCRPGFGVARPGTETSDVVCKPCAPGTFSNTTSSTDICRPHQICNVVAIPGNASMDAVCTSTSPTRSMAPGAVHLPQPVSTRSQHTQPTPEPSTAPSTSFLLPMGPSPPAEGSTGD
The assay is described as follows: BLI.

One molecule from article PMC13137973 (2026) can be followed below.

The term koff denotes a measure of how fast the partners let go of each other. High values mean a short-lived complex, low ones a long-lived complex.

B1: human immunodeficiency virus 1 (HIV-1) (group M, subtype B, Isolate MN) gp120 Protein (natural protein)
chain: not shown
Molecule B1 displayed a koff of 0.00623 s⁻¹.
